Patent US20230374144A1 (STAIDSON BEIJING BIOPHARMACEUTICAL, published 2023)

How the values were obtained:
[1] = target: T1, human IL-4Rα on cells (human, UniProt P24394 26-825); experiment: cell-based or functional assay
[2] = target: T2, recombinant human IL-4Rα (extracellular domain, tagged) (human, UniProt P24394 26-232); experiment: SPR, Biacore T200; antibody (human IgG4) on the sensor chip, human IL-4Rα at 0.625-12.5 nM
T2 construct: it is written second here only for want of that; also called hIL-4Rα; not shown: His-tag or other conventionally used tag
Experimental: The binding affinity of the anti-IL-4Rα antibodies (reformatted as human IgG4) to human IL-4Rα was characterized using Biacore T200 (GE). The full-length anti-IL-4Rα antibodies were stabilized on sensor chip CMS. The affinities for human IL-4Rα at various concentrations were measured. […] Using the SPR technology, the association and dissociation rates were measured, and binding affinity was determined.

[3] = target: T1, human IL-4Rα on cells; experiment: cell-based or functional assay; remark: listed apart in the source
[4] = target: T3, IL-4R with mouse Fc-tag (human, UniProt P24394 26-232); experiment: competitive ELISA: antibody dilutions with 0.5 µg/mL IL-4R-mouse Fc on plate-captured biotinylated IL-4, anti-mouse-Fc-HRP
T3 construct: not shown: mouse Fc-tag
Experimental: Competitive ELISA: The second assay was designed to identify the anti-IL-4Rα antibodies that were capable of inhibiting the binding of hIL-4 to hIL-4Rα, as measured by competitive ELISA. Briefly, a 96-well plate was coated with 100 μL, 2.5 μg/mL SA (Streptavidin) solution, and incubated overnight at 4° C., followed by washed with TBST. Biotinylated IL-4 with the final concentration of 2 μg/mL was added into the plate and incubated at 37° C. for 1 hour. Then the plate was washed with TBST. The anti-IL-4Rα antibody samples were first diluted to 10 μg/mL, and 1004, of the sample was added to the first row of wells. 10 μg/mL anti-IL-4Rα antibody samples were then serially diluted at a 1:2 ratio and added to each of the remaining rows of wells. 504 of 0.5 μg/mL IL-4R with mouse Fc-tag was added to each well. After incubating for 1 hour at 37° C., the wells were washed with TBST 6 times. 100 µL of anti-mouse-Fc-HRP (1:10,000) was then added to each well and incubated for 1 hour at 37° C. The wells were washed with TBST 6 times before adding 1004/well of TMB, and incubated for 5-10 minutes at 37° C. 2M H₂SO₄ was used to stop the reaction. The ELISA results (OD450) were read, and the binding curves were generated by GraphPad Prism 5 software (GraphPad Software). Reference antibody Dupilumab (Regeneron, anti-IL-4Rα antibody) and AMG317 (Amgen, anti-IL-4Rα antibody) were used as positive controls, Human IgG4, kappa Isotype Control (Cat #HG4K, Sino Biological Inc.) was used as negative control, abbreviated as Human IgG4 in FIG. 1.

B1: C27 (antibody, human IgG4, V domains shown)
VH: EVQLLESGGGLVQPGGSLRLSCAASGFTLSSYAMHWVRQAPGKGLEYVSGISSNGGSTYYANSVKGRFTISRDNPKNTLFLQMSSLRAEDTAVYYCVRVKVGYRGGMDVWGQGTTVTVSS
VL: ETTLTQSPDTLPLSPGDRASLSCRASQSVSSAYLAWYQQKPGQAPRLLIYGTSRRATGVPGRFSGSGSGTDFTLTISRLEPEDFAVYYCQLYGSSSVTFGQGTKLEIK
notes: also called parent antibody C27; lead parent antibody
- IC50(nM), neutralization of hIL-4 (1.2 ng/ml), HEK-Blue IL-4/IL-13 STAT6-SEAP reporter cells [1]: 17.9 nM
- Kd [2]: 17.6 nM
- koff [2]: 0.0127 s⁻¹
- kon [2]: 719000 M⁻¹ s⁻¹

B2: C27-58-58 (antibody, human IgG4, V domains shown)
VH: EVQLLESGGGLVQPGGSLRLSCAASGFTLSSYAMHWVRQAPGKGLEYVSGISPSSNSTYYANSVKGRFTISRDNPKNTLFLQMSSLRAEDTAVYYCVRVKVRYRGGMDVWGQGTTVTVSS
VL: EIVLTQSPGTLSLSPGERATLSCRASQDISSAYLAWYQQKPGQAPRLLIYGTSRRATGIPDRFSGSGSGTDFTLTISRLEPEDFAVYYCQLYGATSVTFGQGTKLEIK
- IC50(nM), neutralization of hIL-4 (1.2 ng/ml), HEK-Blue IL-4/IL-13 STAT6-SEAP reporter cells [1]: 0.41 nM

B3: C27-52-52 (antibody, human IgG4, V domains shown)
VH: EVQLLESGGGLVQPGGSLRLSCAASGFTLSSYAMHWVRQAPGKGLEYVSGISSSGSSTYYANSVKGRFTISRDNPKNTLFLQMSSLRAEDTAVYYCVRVKPAYRGGMDVWGQGTTVTVSS
VL: EIVLTQSPGTLSLSPGERATLSCRASQGVSTAYLAWYQQKPGQAPRLLIYGTSRRATGIPDRFSGSGSGTDFTLTISRLEPEDFAVYYCQLYGATSVTFGQGTKLEIK
- IC50(nM), neutralization of hIL-4 (1.2 ng/ml), HEK-Blue IL-4/IL-13 STAT6-SEAP reporter cells [1]: 0.476 nM

B4: C27-54-54 (antibody, human IgG4, V domains shown)
VH: EVQLLESGGGLVQPGGSLRLSCAASGFTLSSYAMHWVRQAPGKGLEYVSGISHSGTSTYYANSVKGRFTISRDNPKNTLFLQMSSLRAEDTAVYYCVRVRVLYRGGMDVWGQGTTVTVSS
VL: EIVLTQSPGTLSLSPGERATLSCRASQDVSSAYLAWYQQKPGQAPRLLIYGTSRRATGIPDRFSGSGSGTDFTLTISRLEPEDFAVYYCQLYGATSVTFGQGTKLEIK
- IC50(nM), neutralization of hIL-4 (1.2 ng/ml), HEK-Blue IL-4/IL-13 STAT6-SEAP reporter cells [1]: 0.34 nM

B5: C27-53-53 (antibody, human IgG4, V domains shown)
VH: EVQLLESGGGLVQPGGSLRLSCAASGFTLSSYAMHWVRQAPGKGLEYVSGISSNGGSTYYANSVKGRFTISRDNPKNTLFLQMSSLRAEDTAVYYCVRVFVRYRGGMDVWGQGTTVTVSS
VL: EIVLTQSPGTLSLSPGERATLSCRASQDASNAYLAWYQQKPGQAPRLLIYGTSRRATGIPDRFSGSGSGTDFTLTISRLEPEDFAVYYCQLYGSSSVTFGQGTKLEIK
- IC50(nM), neutralization of hIL-4 (1.2 ng/ml), HEK-Blue IL-4/IL-13 STAT6-SEAP reporter cells [1]: 0.293 nM

B6: C27-67-67 (antibody, human IgG4, V domains shown)
VH: EVQLLESGGGLVQPGGSLRLSCAASGFTLSSYAMHWVRQAPGKGLEYVSGISPTSASTYYANSVKGRFTISRDNPKNTLFLQMSSLRAEDTAVYYCVRVKGRYRGGMDVWGQGTTVTVSS
VL: EIVLTQSPGTLSLSPGERATLSCRASQGVSSAYLAWYQQKPGQAPRLLIYGTSRRATGIPDRFSGSGSGTDFTLTISRLEPEDFAVYYCQLYGRSSVTFGQGTKLEIK
- IC50(nM), neutralization of hIL-4 (1.2 ng/ml), HEK-Blue IL-4/IL-13 STAT6-SEAP reporter cells [1]: 0.076 nM

B7: C27-82-58 (antibody, human IgG4, V domains shown)
VH: EVQLLESGGGLVQPGGSLRLSCAASGFTLSSYAMHWVRQAPGKGLEYVSGISGNSASTYYANSVKGRFTISRDNPKNTLFLQMSSLRAEDTAVYYCVRVKLKYRGGMDVWGQGTTVTVSS
VL: EIVLTQSPGTLSLSPGERATLSCRASQDISSAYLAWYQQKPGQAPRLLIYGTSRRATGIPDRFSGSGSGTDFTLTISRLEPEDFAVYYCQLYGATSVTFGQGTKLEIK
- IC50(nM), neutralization of hIL-4 (1.2 ng/ml), HEK-Blue IL-4/IL-13 STAT6-SEAP reporter cells [1]: 0.283 nM
- Kd [2]: 3.67 nM
- koff [2]: 0.000557 s⁻¹
- kon [2]: 152000 M⁻¹ s⁻¹

B8: C27-55-55 (antibody, human IgG4, V domains shown)
VH: EVQLLESGGGLVQPGGSLRLSCAASGFTLSSYAMHWVRQAPGKGLEYVSGISPTGGSTYYANSVKGRFTISRDNPKNTLFLQMSSLRAEDTAVYYCVRVKGRYRGGMDVWGQGTTVTVSS
VL: EIVLTQSPGTLSLSPGERATLSCRASQNISTAYLAWYQQKPGQAPRLLIYGTSRRATGIPDRFSGSGSGTDFTLTISRLEPEDFAVYYCQLYGTSSVTFGQGTKLEIK
- IC50(nM), neutralization of hIL-4 (1.2 ng/ml), HEK-Blue IL-4/IL-13 STAT6-SEAP reporter cells [1]: 0.0853 nM
- Kd [2]: 2.47 nM
- koff [2]: 0.000379 s⁻¹
- kon [2]: 154000 M⁻¹ s⁻¹

B9: C27-6-33 (antibody, human IgG4, V domains shown)
VH: EVQLLESGGGLVQPGGSLRLSCAASGFTLSSYAMHWVRQAPGKGLEYVSGISPSGSSTYYANSVKGRFTISRDNPKNTLFLQMSSLRAEDTAVYYCVRSKVRYRGGMDVWGQGTTVTVSS
VL: EIVLTQSPGTLSLSPGERATLSCRASQGISSAYLAWYQQKPGQAPRLLIYGTSRRATGIPDRFSGSGSGTDFTLTISRLEPEDFAVYYCQLYGATSVTFGQGTKLEIK
- IC50(nM), neutralization of hIL-4 (1.2 ng/ml), HEK-Blue IL-4/IL-13 STAT6-SEAP reporter cells [1]: 0.0537 nM
- IC50(nM), neutralization of hIL-13 (4 ng/ml), HEK-Blue IL-4/IL-13 STAT6-SEAP reporter cells [3]: 0.0446 nM
- Kd [2]: 2.12 nM
- koff [2]: 0.00017 s⁻¹
- kon [2]: 80400 M⁻¹ s⁻¹
- IC50 [4]: 0.0781 µg/mL

B10: C27-33-33 (antibody, human IgG4, V domains shown)
VH: EVQLLESGGGLVQPGGSLRLSCAASGFTLSSYAMHWVRQAPGKGLEYVSGISSSGSSTYYANSVKGRFTISRDNPKNTLFLQMSSLRAEDTAVYYCVRVKVAYRGGMDVWGQGTTVTVSS
VL: EIVLTQSPGTLSLSPGERATLSCRASQGISSAYLAWYQQKPGQAPRLLIYGTSRRATGIPDRFSGSGSGTDFTLTISRLEPEDFAVYYCQLYGATSVTFGQGTKLEIK
- IC50(nM), neutralization of hIL-4 (1.2 ng/ml), HEK-Blue IL-4/IL-13 STAT6-SEAP reporter cells [1]: 0.195 nM
- Kd [2]: 3.74 nM
- koff [2]: 0.000447 s⁻¹
- kon [2]: 119000 M⁻¹ s⁻¹

B11: C27-36-36 (antibody, human IgG4, V domains shown)
VH: EVQLLESGGGLVQPGGSLRLSCAASGFTLSSYAMHWVRQAPGKGLEYVSGISPSGVSTYYANSVKGRFTISRDNPKNTLFLQMSSLRAEDTAVYYCVRVKVKYRGGMDVWGQGTTVTVSS
VL: EIVLTQSPGTLSLSPGERATLSCRASQNISTAYLAWYQQKPGQAPRLLIYGTSRRATGIPDRFSGSGSGTDFTLTISRLEPEDFAVYYCQLYGATSVTFGQGTKLEIK
- IC50(nM), neutralization of hIL-4 (1.2 ng/ml), HEK-Blue IL-4/IL-13 STAT6-SEAP reporter cells [1]: 0.125 nM
- Kd [2]: 2.56 nM
- koff [2]: 0.000351 s⁻¹
- kon [2]: 137000 M⁻¹ s⁻¹

B12: C27-Y2-Y2 (antibody, human IgG4, V domains shown)
VH: EVQLLESGGGLVQPGGSLRLSCAASGFTLSSYAMHWVRQAPGKGLEYVSGISYSSASTYYANSVKGRFTISRDNPKNTLFLQMSSLRAEDTAVYYCVRVKVRYRGGMDVWGQGTTVTVSS
VL: EIVLPQSPGTLSLSPGERATLSCRASQGVSSAYLAWYQQKPGQAPRLLIYGTSRRATGIPDRFSGSGSGTDFTLTISRLEPEDFAVYYCQLYGSTSVTFGQGTKLEIK
- IC50(nM), neutralization of hIL-4 (1.2 ng/ml), HEK-Blue IL-4/IL-13 STAT6-SEAP reporter cells [1]: 0.138 nM
- Kd [2]: 5.6 nM
- koff [2]: 0.00078 s⁻¹
- kon [2]: 139000 M⁻¹ s⁻¹

B13: C27-78-78 (antibody, human IgG4, V domains shown)
VH: EVQLLESGGGLVQPGGSLRLSCAASGFTLSSYAMHWVRQAPGKGLEYVSGISPSSASTYYANSVKGRFTISRDNPKNTLFLQMSSLRAEDTAVYYCVRVKSKYRGGMDVWGQGTTVTVSS
VL: EIVLTQSPGTLSLSPGERATLSCRASQSISTAYLAWYQQKPGQAPRLLIYGTSRRATGIPDRFSGSGSGTDFTLTISRLEPEDFAVYYCQLYGASSVTFGQGTKLEIK
- IC50(nM), neutralization of hIL-4 (1.2 ng/ml), HEK-Blue IL-4/IL-13 STAT6-SEAP reporter cells [1]: 0.103 nM
- Kd [2]: 3.62 nM
- koff [2]: 0.000416 s⁻¹
- kon [2]: 115000 M⁻¹ s⁻¹

B14: C27-56-56 (antibody, human IgG4, V domains shown)
VH: EVQLLESGGGLVQPGGSLRLSCAASGFTLSSYAMHWVRQAPGKGLEYVSGISPSSTSTYYANSVKGRFTISRDNPKNTLFLQMSSLRAEDTAVYYCVRVKVLYRGGMDVWGQGTTVTVSS
VL: EIVLTQSPGTLSLSPGERATLSCRASQSVSSAYLAWYQQKPGQAPRLLIYGTSRRATGIPDRFSGSGSGTDFTLTISRLEPEDFAVYYCQLYGASSVTFGQGTKLEIK
- IC50(nM), neutralization of hIL-4 (1.2 ng/ml), HEK-Blue IL-4/IL-13 STAT6-SEAP reporter cells [1]: 0.15 nM
- Kd [2]: 2.38 nM
- koff [2]: 0.000201 s⁻¹
- kon [2]: 84500 M⁻¹ s⁻¹
